Test results reported in US8420051B2, “Muteins of hNGAL and related proteins with affinity for a given target” (Technische Universitaet Meunchen, priority 2008, dated 2013).
Where two headings read alike, the source gives them in different places. Values belong to the molecule of their own block, whether it stands above or below them.

Experiments:
[1] = target: selected hNGAL muteins from the library randomized at positions 33, 36, 41, 52, 54, 68, 70, 79, 81, 134, 136 and 138 (Homo sapiens, UniProt P80188); experiment: ELISA, hexachloronorbornene hapten; assay type: binding; details: preliminary, data not shown
selected hNGAL muteins from the library randomized at positions 33, 36, 41, 52, 54, 68, 70, 79, 81, 134, 136 and 138, sequence (P80188 21-198, stated change not applied): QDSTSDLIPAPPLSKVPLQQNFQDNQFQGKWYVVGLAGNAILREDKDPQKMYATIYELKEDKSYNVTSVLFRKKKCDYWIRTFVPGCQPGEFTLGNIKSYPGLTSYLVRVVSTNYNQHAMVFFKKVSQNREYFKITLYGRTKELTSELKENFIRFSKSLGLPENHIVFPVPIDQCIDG
Excerpt: The hNGAL library obtained in Example 2 was used to generate muteins having affinity to a hexachloronorbonene hapten. In more detail, the hexachloronorbornene hapten used was hexachloronorbornene N—(CH2)5—COOH the synthesis of which was reported by Hilvert et al., J. Am. Chem. Soc. 1989, Vol. 111, 9261-9262 (compound 2 in FIG. 1 of Hilvert et al) which represents a transition state analogue for the [4+2] Diels-Alder reaction (see also, Xu et al., Science, 1999, Vol. 286, 2345-2348). Generation of the hNGAL muteins were carried out essentially in accordance with the experimental procedure as described in Example 3 above and muteins with binding activity to the to hexachloronorbornene hapten were isolated and characterized by ELISA.

[2] = target: T1, hNGAL mutein CL31, SEQ ID NO: 31 (L1 + V44M/N65D/G86S/S87P/S99N/L107F) (Homo sapiens, UniProt P80188, C107P/D67E/D97E/E64M/G106S/I100T/I61A/I75T/K154S/K66P/K70L/K95M/L127F/L56R/L62P/L90R/M71L/N85D/P68L/Q48H/Q69L/R101M/R63P/S119N/S147Q/S88A/T156S/T165A/T74Q/V53Q/W99L/Y158L/Y72T); experiment: SPR (Biacore), immobilized Y•DTPA-RNase; assay type: binding
T1 construct: the mature hNGAL protein and the C-terminal Strep-tag II; Strep-tag II (C); OmpA signal peptide (N, cleaved yes); made in house; host or cells: E. coli (periplasm)
T1 sequence (P80188 21-198 with the stated changes): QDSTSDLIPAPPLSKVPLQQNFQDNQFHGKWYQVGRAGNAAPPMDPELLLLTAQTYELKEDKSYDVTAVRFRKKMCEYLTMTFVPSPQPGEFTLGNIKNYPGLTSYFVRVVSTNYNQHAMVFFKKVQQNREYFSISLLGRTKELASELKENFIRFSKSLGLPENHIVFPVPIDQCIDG
Protocol: FIG. 2E depicts the kinetic real time analysis of hNGAL variant CL31 measured on a Biacore instrument at a flow rate of 25 μl/min. The Y•DTPA-RNase conjugate was coupled via amine chemistry to a CM5 sensor chip (ΔRU=300), and the purified hNGAL variant CL31 was applied at varying concentrations as indicated. The measured signal is shown as a gray line and the fitted curve as a black line in each case.
(§1) Real time analysis of hNGAL variants was performed on a BIAcore X system (BIAcore, Uppsala, Sweden) using PBS/t (PBS containing 0.005% (v/v) Tween 20) as running buffer. 5 to 27 μg/ml solutions of the Me•DTPA-RNase conjugate in 10 mM Na-acetate, pH 5.0 were immobilized on a CM5 chip using standard amine coupling chemistry, resulting in a ligand density of 240 to 1800 resonance units (RU). The purified hNGAL variant was applied at a flow rate of 5 or 25 μl/min at concentrations of 0.5 up to 500 nM. The sensorgrams were corrected by subtraction of the corresponding signals measured for the control channel, which had been activated and blocked with ethanolamine. Kinetic data evaluation was performed by global fitting with BIAevaluation software V 3.0 (Karlsson et al. (1991) J. Immunol. Methods 145, 229-240). Alternatively, the plateau values at the end of the association phase (after 200 s) were plotted against the applied protein concentration and fitted as in the ELISA (see above) to determine the equilibrium dissociation constants (KO.

[3] = target: T2, hNGAL mutein L1, SEQ ID NO: 28 (C26 + R43P/E44V/K46P/D47E/K50L/M51L) (Homo sapiens, UniProt P80188, C107S/D67E/D97E/E64V/I100T/I61A/I75T/K154S/K66P/K70L/K95M/L56R/L62P/L90R/M71L/P68L/Q48H/Q69L/R101M/R63P/S147Q/S88A/T156S/T165A/T74Q/V53Q/W99L/Y158L/Y72T); experiment: SPR (Biacore), immobilized Y-DTPA-RNaseA; assay type: binding
T2 construct: the mature hNGAL protein and the C-terminal Strep-tag II; Strep-tag II (C); OmpA signal peptide (N, cleaved yes); made in house; host or cells: E. coli (periplasm)
T2 sequence (P80188 21-198 with the stated changes): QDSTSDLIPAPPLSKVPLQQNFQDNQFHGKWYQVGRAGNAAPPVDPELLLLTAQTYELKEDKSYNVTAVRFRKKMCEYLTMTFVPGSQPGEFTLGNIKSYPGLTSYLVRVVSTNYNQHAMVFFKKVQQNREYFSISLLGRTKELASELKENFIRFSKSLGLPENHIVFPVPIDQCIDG
Protocol: as §1
The new hNGAL variant L1 was analyzed by SPR as in Example 8 using a Biacore CM-5 chip with the covalently attached Y-DTPA-RNaseA conjugate and applying the purified recombinant protein.

[4] = target: T3, hNGAL mutein C26, SEQ ID NO: 10 (Yd5 + L42P/P48L/Q49L/I55T (155T [sic])/K75M) (Homo sapiens, UniProt P80188, C107S/D97E/I100T/I61A/I75T/K154S/K95M/L56R/L62P/L90R/P68L/Q48H/Q69L/R101M/S147Q/S88A/T156S/T165A/T74Q/V53Q/W99L/Y158L/Y72T); experiment: SPR (Biacore), immobilized Me•DTPA-RNase; assay type: binding
T3 construct: the mature hNGAL protein and the C-terminal Strep-tag II; OmpA signal peptide (N, cleaved yes); made in house; host or cells: E. coli BL21 or TG1-F- (periplasm), plasmid pNGAL15
T3 sequence (P80188 21-198 with the stated changes): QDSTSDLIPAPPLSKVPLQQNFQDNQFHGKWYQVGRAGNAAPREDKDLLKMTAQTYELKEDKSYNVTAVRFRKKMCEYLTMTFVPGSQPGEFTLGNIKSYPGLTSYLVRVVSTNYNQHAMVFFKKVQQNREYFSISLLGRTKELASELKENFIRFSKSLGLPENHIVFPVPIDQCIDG
Protocol: FIG. 2D depicts the kinetic real time analysis of hNGAL variant C26 measured on a Biacore instrument. The Y•DTPA-RNase conjugate was coupled via amine chemistry to a CM5 sensor chip (ΔRU=240) and the purified hNGAL variant C26 was applied at varying concentrations. The measured signal is shown as a grey line whereas the curve fit is depicted as a black line in each case.
as §1
(§2) Finally, the hNGAL variants were analyzed by SPR using a Biacore CM-5 chip with the covalently attached Y-DTPA-RNaseA conjugate and applying the purified recombinant proteins (Table 3). […] The improved KD values result primarily from slower ligand dissociation.

[5] = target: T4, hNGAL mutein Tb7.N9.N34, SEQ ID NO: 7 (Tb7.N9 + S127Q) (Homo sapiens, UniProt P80188, C107S/I100T/I61A/K154S/L56R/L90R/Q48H/R101M/S147Q/S88A/T165A/T74Q/V53Q/W99L/Y158L/Y72T); experiment: SPR (Biacore), immobilized Me•DTPA-RNase; assay type: binding; details: 5 μl/min
T4 construct: the mature hNGAL protein and the C-terminal Strep-tag II; Strep-tag II (C); OmpA signal peptide (N, cleaved yes); made in house; host or cells: E. coli BL21 or TG1-F- (periplasm), plasmid pNGAL15
T4 sequence (P80188 21-198 with the stated changes): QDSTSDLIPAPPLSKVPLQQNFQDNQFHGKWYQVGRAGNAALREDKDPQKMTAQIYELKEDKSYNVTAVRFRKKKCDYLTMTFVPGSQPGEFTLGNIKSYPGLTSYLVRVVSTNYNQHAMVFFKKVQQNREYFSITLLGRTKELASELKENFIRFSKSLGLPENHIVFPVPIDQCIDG
Protocol: as §1, §2

[6] = target: T5, hNGAL mutein Tb7, SEQ ID NO: 2 (Gln28His, Val33Gln, Leu36Arg, Ile41Ala, Tyr52Thr, Thr54Gln, Ser68Ala, Leu70Arg, Trp79Ala, Arg81Met, Cys87Ser, Lys134Ser, Tyr138L (Homo sapiens, UniProt P80188, C107S/I61A/K154S/L56R/L90R/Q48H/R101M/S88A/T165A/T74Q/V53Q/W99A/Y158L/Y72T)); experiment: SPR (Biacore), immobilized Me•DTPA-RNase; assay type: binding; details: 5 μl/min; for Kd: from the kinetic analysis, read-out: KD
T5 construct: the mature hNGAL protein and the C-terminal Strep-tag II; OmpA signal peptide (N, cleaved yes); made in house; host or cells: E. coli BL21 or TG1-F- (periplasm), plasmid pNGAL15
T5 sequence (P80188 21-198 Q48H/V53Q/L56R/I61A/Y72T/T74Q/S88A/L90R/W99A/R101M/C107S/K154S/Y158L/T165A): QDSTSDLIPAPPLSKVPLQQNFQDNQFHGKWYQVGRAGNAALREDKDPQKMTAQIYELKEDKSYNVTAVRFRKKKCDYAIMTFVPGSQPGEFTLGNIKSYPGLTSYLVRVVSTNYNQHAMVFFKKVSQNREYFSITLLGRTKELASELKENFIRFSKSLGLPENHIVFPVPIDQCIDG
Protocol: as §1, §2

[7] = tested on: hNGAL mutein Yd5, SEQ ID NO: 9 (Tb7.N9.N34 + D77E/T136S); experiment: SPR (Biacore), immobilized Me•DTPA-RNase; assay type: binding, human; details: vs parental Tb7
Protocol: as §1, §2

[8] = target: T6, human neutrophil gelatinase-associated lipocalin (hNGAL, lipocalin 2, P80188), wild type, SEQ ID NO: 1 (Homo sapiens, UniProt P80188); experiment: SPR (Biacore), immobilized Me•DTPA-RNase; assay type: binding; details: immobilized Y-DTPA-RNaseA
T6 construct: the mature hNGAL protein and the C-terminal Strep-tag II; OmpA signal peptide (N, cleaved yes); made in house; host or cells: E. coli BL21 or TG1-F- (periplasm), plasmid pNGAL14
T6 sequence (P80188 21-198, one chain of several): as the sequence (P80188 21-198, stated change not applied) above
Protocol: as §1, §2

[9] = target: T7, hNGAL mutein Ya6, SEQ ID NO: 8 (Tb7.N9.N34 with Thr136Ser) (Homo sapiens, UniProt P80188, C107S/I100T/I61A/K154S/L56R/L90R/Q48H/R101M/S147Q/S88A/T156S/T165A/T74Q/V53Q/W99L/Y158L/Y72T); experiment: SPR (Biacore), immobilized Me•DTPA-RNase; assay type: binding; details: 5 μl/min; for Kd: from the kinetic analysis, read-out: KD
T7 construct: the mature hNGAL protein and the C-terminal Strep-tag II; Strep-tag II (C); OmpA signal peptide (N, cleaved yes); made in house; host or cells: E. coli BL21 or TG1-F- (periplasm), plasmid pNGAL15
T7 sequence (P80188 21-198 with the stated changes): as the sequence (P80188 21-198 Q48H/V53Q/L56R/I61A/Y72T/T74Q/S88A/L90R/W99A/R101M/C107S/K154S/Y158L/T165A) above, with A79L, I80T, S127Q, T136S counted along it
Protocol: as §1, §2

[10] = tested on: hNGAL mutein Ya6, SEQ ID NO: 8 (Tb7.N9.N34 with Thr136Ser); experiment: SPR (Biacore), immobilized Me•DTPA-RNase; assay type: binding, human; details: vs parental Tb7
Protocol: as §1, §2

[11] = target: T8, hNGAL mutein Yd5, SEQ ID NO: 9 (Tb7.N9.N34 + D77E/T136S) (Homo sapiens, UniProt P80188, C107S/D97E/I100T/I61A/K154S/L56R/L90R/Q48H/R101M/S147Q/S88A/T156S/T165A/T74Q/V53Q/W99L/Y158L/Y72T); experiment: SPR (Biacore), immobilized Me•DTPA-RNase; assay type: binding; details: for Kd: from the kinetic analysis, read-out: KD
T8 construct: the mature hNGAL protein and the C-terminal Strep-tag II; OmpA signal peptide (N, cleaved yes); made in house; host or cells: E. coli BL21 or TG1-F- (periplasm), plasmid pNGAL15
T8 sequence (P80188 21-198 with the stated changes): as the sequence (P80188 21-198 Q48H/V53Q/L56R/I61A/Y72T/T74Q/S88A/L90R/W99A/R101M/C107S/K154S/Y158L/T165A) above, with D77E, A79L, I80T, S127Q, T136S counted along it
Protocol: as §1, §2

[12] = target: T9, hNGAL mutein Tb7.N9, SEQ ID NO: 6 (Tb7 + A79L/I80T) (Homo sapiens, UniProt P80188, C107S/I100T/I61A/K154S/L56R/L90R/Q48H/R101M/S88A/T165A/T74Q/V53Q/W99L/Y158L/Y72T); experiment: SPR (Biacore), immobilized Me•DTPA-RNase; assay type: binding; details: 5 μl/min
T9 construct: the mature hNGAL protein and the C-terminal Strep-tag II; OmpA signal peptide (N, cleaved yes); made in house; host or cells: E. coli BL21 or TG1-F- (periplasm), plasmid pNGAL15
T9 sequence (P80188 21-198 Q48H/V53Q/L56R/I61A/Y72T/T74Q/S88A/L90R/W99L/I100T/R101M/C107S/K154S/Y158L/T165A): as the sequence (P80188 21-198 Q48H/V53Q/L56R/I61A/Y72T/T74Q/S88A/L90R/W99A/R101M/C107S/K154S/Y158L/T165A) above, with A79L, I80T counted along it
Protocol: as §1, §2

[13] = read-out: affinity to the metal chelate ligand
[14] = from the kinetic analysis, read-out: KD

Molecule: O=C(O)CCCCCN1C(=O)C2C(C1=O)C1(Cl)C(Cl)=C(Cl)C2(Cl)C1(Cl)Cl (stereo not shown) [hexachloronorbornene hapten, hexachloronorbornene N—(CH2)5—COOH]
KD [1]: at least micromolar

association rate constant [2]: 446000 M⁻¹ s⁻¹
dissociation rate constant [2]: 0.000106 s⁻¹
half life of dissociation [2]: ca. 1.8 h
Kd [2, 13]: 0.237 nM
Kd [3]: 0.713 nM
association rate constant [3]: 296000 M⁻¹ s⁻¹
dissociation rate constant [3]: 0.000211 s⁻¹
koff ([4]; 5 μl/min): 0.000704 s⁻¹
kon ([4]; 5 μl/min): 2.5e+06 M⁻¹ s⁻¹
Kd ([4]; 5 μl/min, from the kinetic analysis, read-out: KD): 0.282 nM
Kd [4, 13]: 0.282 nM
koff [5]: 0.0208 s⁻¹
kon [5]: 1.57e+06 M⁻¹ s⁻¹
Kd [5, 14]: 13.2 nM
koff [6]: 0.1 s⁻¹
kon [6]: 998000 M⁻¹ s⁻¹
Kd ([6]; listed as Y-DTPA-RNaseA): 75 to 100 nM
Kd [6]: 100 nM
koff [9]: 0.00553 s⁻¹
kon [9]: 1.72e+06 M⁻¹ s⁻¹
Kd ([9]; listed as Y-DTPA-RNaseA): ~3 nM
Kd [9]: 3.2 nM
koff ([11]; 5 μl/min): 0.00345 s⁻¹
kon ([11]; 5 μl/min): 984000 M⁻¹ s⁻¹
Kd ([11]; 5 μl/min, listed as Y-DTPA-RNaseA): ~3 nM
Kd ([11]; 5 μl/min): 3.5 nM
τ1/2 ([11]; half life of dissociation, listed as Y-DTPA-RNaseA): ca. 200 s
koff [12]: 0.023 s⁻¹
kon [12]: 1.61e+06 M⁻¹ s⁻¹
Kd [12, 14]: 14.3 nM
B1: Y^3+•DTPA-RNase: p-SCN-Bn-CHX-A″-DTPA covalently coupled to bovine ribonuclease A (about 1:1), charged with Y^3+; ligand is the chelate group (conjugate, UniProt P61823 27-150, looked up)
Ribonuclease pancreatic: KETAAAKFERQHMDSSTSAASSSNYCNQMMKSRNLTKDRCKPVNTFVHESLADVQAVCSQKNVACKNGQTNCYQSYSTMSITDCRETGSSKYPNCAYKTTQANKHIIVACEGNPYVPVHFDASV
modifications: CHX-A''-DTPA chelate with Y3+
notes: p-SCN-Bn-CHX-A″-DTPA covalently coupled to bovine ribonuclease A (about 1:1), charged with Y^3+; ligand is the chelate group
affinity improvement over Tb7 [7]: approximately 30 -fold
binding activity [8]: did not exhibit any significant binding activity
affinity improvement over Tb7 [10]: approximately 30 -fold
